Laboratory results published in patent US20040176285A1, “Tip39 polypeptides” (priority 2001, published 2004).
“Also recorded” adds a separate entry of the source. One block for each molecule: values may come before it. Where a SMILES comes first, the peptide text is derived from it. Where no end group is shown, it is not given here.

Columns and labels:
human PTH2 receptor [1] = target: T1, human PTH2 receptor (Homo sapiens, UniProt P49190); test: Ligand-stimulated cAMP accumulation in hPR2-20 LLCPK1 cells; type: cell-based
T1 construct: expressed in transfected cells

human PTH2 receptor [2] = target: T1, human PTH2 receptor; test: Inhibition of agonist-stimulated cAMP accumulation in hPR2-20 LLCPK1 cells; type: cell-based
Excerpt: FIG. 8. […] Data are expressed as % of half-maximal cAMP accumulation and represent the results (mean±SE) of at least three independent experiments.

PTH1R [3] = target: T2, PTH1R (Homo sapiens, UniProt Q03431); test: Inhibition of agonist-stimulated cAMP accumulation in SaOS-2 cells; type: cell-based; set-up: expressed in transfected cells; conditions: SaOS-2 cells (stated for both cell lines); agonists 0.15-0.3 nM
T2 sequence (Q03431 27-593): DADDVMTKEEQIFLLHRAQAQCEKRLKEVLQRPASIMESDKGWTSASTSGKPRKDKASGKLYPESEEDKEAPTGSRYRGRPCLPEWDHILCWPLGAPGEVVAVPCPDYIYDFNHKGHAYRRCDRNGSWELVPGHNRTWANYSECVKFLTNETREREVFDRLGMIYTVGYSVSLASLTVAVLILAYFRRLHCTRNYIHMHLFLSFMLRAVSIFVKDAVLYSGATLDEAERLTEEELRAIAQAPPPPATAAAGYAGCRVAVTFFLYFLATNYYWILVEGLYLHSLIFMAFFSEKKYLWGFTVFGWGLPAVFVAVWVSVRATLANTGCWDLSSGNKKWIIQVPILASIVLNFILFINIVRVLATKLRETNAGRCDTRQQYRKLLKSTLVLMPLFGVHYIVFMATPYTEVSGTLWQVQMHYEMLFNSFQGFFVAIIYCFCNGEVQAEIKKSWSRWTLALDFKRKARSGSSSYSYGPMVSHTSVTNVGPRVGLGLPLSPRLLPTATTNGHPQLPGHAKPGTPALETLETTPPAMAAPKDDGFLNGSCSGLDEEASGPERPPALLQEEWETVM
Excerpt: FIG. 4A-4F. Inhibition of agonist-stimulated cAMP accumulation in HKrk-B7 cells (FIG. 4A-4C) or SaOS-2 cells (FIG. 4D-4F). […] Data are expressed as % of half-maximal cAMP accumulation and represent the results (mean±SE) of at least three independent experiments.
Na^125I (specific activity: 2,000 Ci/mmol) was purchased from DuPont/NEN, Boston, Mass. Fetal bovine serum, 3-isobutyl-1-methyl-xanthine (IBMX), and BSA were from Sigma, St. Louis, Mo., and trifluoroacetic acid (TFA) was from Pierce, Rockford, Ill. Radiolabeled rPTH(1-34) and PTHrP(1-36) were prepared by the chloramine-T method, followed by HPLC purification using a 30-50% ACN/0.1% TFA gradient over 30 minutes; radioreceptor assays were performed in 24-well plates as previously described (Gardella, T. J., et al., J. Biol. Chem. 271:19888-19893 (1996); Fukayama, S. et al., Endocrinology 134:1851-1858 (1994)). […] The entire lysate was counted for γ-irradiation. Specific binding was determined after subtracting radioactivity bound in the presence of maximal concentrations of unlabeled competing peptide (10^−6 M). […] Data were analyzed and graphically illustrated using the graph-pad prism software package.

PTH1R [4] = target: T2, PTH1R; test: Ligand-stimulated cAMP accumulation in HKrk-B7 cells; type: cell-based; set-up: expressed in transfected cells; conditions: HKrk-B7 cells
Protocol: DMEM, Trypsin/EDTA, and penicillin G/streptomycin and horse serum were from Gibco/BRL, Life Technologies, Gaithersburg, Md. LLC-PK, expressing the recombinant human PTH1R (HKrk-B7 cells) and SaOS-2 cells expressing the wild-type PTH1R endogenously were cultured in DMEM supplemented with 10% heat-inactivated fetal bovine serum, 100 U/ml penicillin, 100 μg/ml streptomycin, as previously described (Gardella, T. J., et al., J. Biol. Chem. 271:19888-19893 (1996); Fukayama, S., et al., Endocrinology 134:1851-1858 (1994)); both cell lines were maintained in a humidified atmosphere containing 95% air and 5% CO2. After seeding, medium was replaced daily, until cells were used for radioligand binding or cAMP accumulation assays.
Na^125I (specific activity: 2,000 Ci/mmol) was purchased from DuPont/NEN, Boston, Mass. Fetal bovine serum, 3-isobutyl-1-methyl-xanthine (IBMX), and BSA were from Sigma, St. Louis, Mo., and trifluoroacetic acid (TFA) was from Pierce, Rockford, Ill. Radiolabeled rPTH(1-34) and PTHrP(1-36) were prepared by the chloramine-T method, followed by HPLC purification using a 30-50% ACN/0.1% TFA gradient over 30 minutes; radioreceptor assays were performed in 24-well plates as previously described (Gardella, T. J., et al., J. Biol. Chem. 271:19888-19893 (1996); Fukayama, S. et al., Endocrinology 134:1851-1858 (1994)). In brief, each well (final volume 500 μl) contained binding buffer (BB; 50 mM Tris-HCl (pH 7.7), 100 mM NaCl, 5 mM KCl, 2 mM CaCl2, 5% heat-inactivated horse serum, and 0.5% heat-inactivated fetal bovine serum), the ^125I-labeled PTH or PTHrP analog (100,000 to 200,000 cpm) was incubated in the absence or presence of increasing concentrations of unlabeled peptides. After 4 h at 16° C., buffer was completely removed, the cells were rinsed with cold BB and lysed with 1 M NaOH. The entire lysate was counted for γ-irradiation. Specific binding was determined after subtracting radioactivity bound in the presence of maximal concentrations of unlabeled competing peptide (10^−6 M). Agonist-dependent stimulation of cAMP accumulation by HKrk-B7 and SaOS-2 cells (48-well plates; stimulation at room temperature for 45 minutes) and the subsequent measurement of cAMP by radioimmunoassay was performed as previously described (Gardella, T. J., et al., J. Biol. Chem. 271:19888-19893 (1996); Bergwitz, C., et al., Endocrinology 139:723-732 (1998)). Data were analyzed and graphically illustrated using the graph-pad prism software package.
The values for EC50 and Vmax (mean±SE) are derived from at least three independent experiments.

[5] = target: T3, human PTH/PTHrP receptor (PTH1R) (human, UniProt Q03431 27-593); test: radioreceptor competition on HKrk-B7 cells; tracer 125I-[Tyr36]PTHrP(1-36)amide
T3 construct: whole, on cells; HKrk-B7 cells about 10^6 receptors/cell; SaOS-2 about 30,000 receptors/cell; also called hPTH-1 receptor; PTH-1 receptor
T3 sequence (looked up): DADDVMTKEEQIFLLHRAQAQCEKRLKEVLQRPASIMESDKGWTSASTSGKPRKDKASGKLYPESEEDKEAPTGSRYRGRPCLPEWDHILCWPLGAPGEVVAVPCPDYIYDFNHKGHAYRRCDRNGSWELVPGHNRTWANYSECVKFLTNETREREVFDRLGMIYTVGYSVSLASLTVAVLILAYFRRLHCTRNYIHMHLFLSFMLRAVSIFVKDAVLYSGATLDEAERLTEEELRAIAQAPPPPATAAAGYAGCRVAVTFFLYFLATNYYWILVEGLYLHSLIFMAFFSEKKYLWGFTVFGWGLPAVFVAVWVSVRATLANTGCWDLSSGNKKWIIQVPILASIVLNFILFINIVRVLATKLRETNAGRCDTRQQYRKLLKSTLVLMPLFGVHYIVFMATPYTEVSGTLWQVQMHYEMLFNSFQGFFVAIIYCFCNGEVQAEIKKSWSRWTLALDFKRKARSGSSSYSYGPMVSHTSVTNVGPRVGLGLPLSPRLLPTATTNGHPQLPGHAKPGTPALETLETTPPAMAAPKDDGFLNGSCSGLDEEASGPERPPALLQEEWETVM
Protocol: (§1) Na¹²⁵I (specific activity: 2,000 Ci/mmol) was purchased from DuPont/NEN, Boston, Mass. Fetal bovine serum, 3-isobutyl-1-methyl-xanthine (IBMX), and BSA were from Sigma, St. Louis, Mo., and trifluoroacetic acid (TFA) was from Pierce, Rockford, Ill. […] After 4 h at 16° C., buffer was completely removed, the cells were rinsed with cold BB and lysed with 1 M NaOH. The entire lysate was counted for γ-irradiation. Specific binding was determined after subtracting radioactivity bound in the presence of maximal concentrations of unlabeled competing peptide (10⁻⁶ M). Agonist-dependent stimulation of cAMP accumulation by HKrk-B7 and SaOS-2 cells (48-well plates; stimulation at room temperature for 45 minutes) and the subsequent measurement of cAMP by radioimmunoassay was performed as previously described (Gardella, T. J., et al., J. Biol. Chem. 271:19888-19893 (1996); Bergwitz, C., et al., Endocrinology 139:723-732 (1998)). Data were analyzed and graphically illustrated using the graph-pad prism software package.

[6] = target: T3, human PTH/PTHrP receptor (PTH1R); test: radioreceptor competition on HKrk-B7 cells
Protocol: (§2) Specific binding was determined after subtracting radioactivity bound in the presence of maximal concentrations of unlabeled competing peptide (10⁻⁶ M). Agonist-dependent stimulation of cAMP accumulation by HKrk-B7 and SaOS-2 cells (48-well plates; stimulation at room temperature for 45 minutes) and the subsequent measurement of cAMP by radioimmunoassay was performed as previously described (Gardella, T. J., et al., J. Biol. Chem. 271:19888-19893 (1996); Bergwitz, C., et al., Endocrinology 139:723-732 (1998)). Data were analyzed and graphically illustrated using the graph-pad prism software package.

[7] = target: T3, human PTH/PTHrP receptor (PTH1R); test: radioreceptor competition on HKrk-B7 cells; tracer 125I-rat [Nle8,21,Tyr34]PTH(1-34)amide
Protocol: as §1

[8] = target: T3, human PTH/PTHrP receptor (PTH1R); test: radioreceptor competition on HKrk-B7 cells; either tracer
Protocol: as §2

[9] = target: T3, human PTH/PTHrP receptor (PTH1R); test: radioreceptor competition on HKrk-B7 cells, 125I-rPTH(1-34) or 125I-PTHrP(1-36)
Protocol: as §1

T1 sequence (P49190 25-550): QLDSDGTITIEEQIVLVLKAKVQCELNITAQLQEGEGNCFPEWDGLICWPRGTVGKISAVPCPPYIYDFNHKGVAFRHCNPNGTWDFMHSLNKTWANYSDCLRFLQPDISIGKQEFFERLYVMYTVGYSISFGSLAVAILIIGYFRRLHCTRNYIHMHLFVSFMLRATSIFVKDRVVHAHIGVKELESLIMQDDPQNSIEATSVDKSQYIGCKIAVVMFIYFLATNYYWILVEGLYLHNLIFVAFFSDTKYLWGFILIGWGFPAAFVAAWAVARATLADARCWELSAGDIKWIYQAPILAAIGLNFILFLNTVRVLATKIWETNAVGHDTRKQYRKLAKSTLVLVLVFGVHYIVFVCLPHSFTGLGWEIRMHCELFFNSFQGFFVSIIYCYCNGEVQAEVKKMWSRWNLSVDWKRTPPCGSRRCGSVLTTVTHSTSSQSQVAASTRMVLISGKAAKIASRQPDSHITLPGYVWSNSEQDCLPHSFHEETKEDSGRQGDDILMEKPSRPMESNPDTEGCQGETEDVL

maximum cAMP accumulation (human PTH2 receptor [1]): 133.7±3.9 pmol/well
Molecule: CSCC[C@H](NC(=O)[C@H](Cc1ccc(O)cc1)NC(=O)[C@H](CO)NC(=O)[C@H](CC(=O)O)NC(=O)[C@H](CC(C)C)NC(=O)[C@H](Cc1c[nH]c2ccccc12)NC(=O)[C@H](CCC(=O)O)NC(=O)[C@H](CCCNC(=N)N)NC(=O)[C@H](CCCNC(=N)N)NC(=O)[C@H](CCC(=O)O)NC(=O)[C@H](CC(C)C)NC(=O)[C@H](C)NC(=O)[C@H](C)NC(=O)[C@H](CC(C)C)NC(=O)[C@H](CC(C)C)NC(=O)[C@H](CCCNC(=N)N)NC(=O)[C@H](C)NC(=O)[C@H](CCCNC(=N)N)NC(=O)[C@H](CCC(=O)O)NC(=O)[C@H](CCCNC(=N)N)NC(=O)[C@H](Cc1ccccc1)NC(=O)[C@H](C)NC(=O)[C@H](C)NC(=O)[C@H](CC(=O)O)NC(=O)[C@H](CC(=O)O)NC(=O)[C@H](C)NC(=O)[C@H](CC(C)C)NC(=O)[C@H](C)NC(=O)[C@H](CC(C)C)NC(=O)[C@@H](N)CO)C(=O)N[C@@H](CCC(N)=O)C(=O)N[C@@H](CCCCN)C(=O)N[C@@H](CC(C)C)C(=O)N[C@@H](CC(C)C)C(=O)N[C@@H](CC(C)C)C(=O)N[C@@H](CC(C)C)C(=O)N[C@@H](CC(=O)O)C(=O)N[C@@H](C)C(=O)N1CCC[C@H]1C(N)=O [mouse TIP39] (H-SLALADDAAFRERARLLAALERREWLDSYMQKLLLLDAP-NH2)

binding result [9]: no binding
B2: TIP(23-39) (peptide)
peptide: RHWLNSYMHKLLVLDAP

binding result [9]: no binding
B3: TIP(19-39) (peptide)
peptide: ALERRHWLNSYMHKLLVLDAP

The next lines start with the molecule.

Molecule: CSCC[C@H](NC(=O)[C@H](Cc1ccc(O)cc1)NC(=O)[C@H](CO)NC(=O)[C@H](CC(N)=O)NC(=O)[C@H](CC(C)C)NC(=O)[C@H](Cc1c[nH]c2ccccc12)NC(=O)[C@H](Cc1c[nH]cn1)NC(=O)[C@H](CCCNC(=N)N)NC(=O)[C@H](CCCNC(=N)N)NC(=O)[C@H](CCC(=O)O)NC(=O)[C@H](CC(C)C)NC(=O)[C@H](C)NC(=O)[C@H](C)NC(=O)[C@H](CC(C)C)NC(=O)[C@H](CC(C)C)NC(=O)[C@H](CCCNC(=N)N)NC(=O)[C@H](C)NC(=O)[C@H](CCCNC(=N)N)NC(=O)[C@H](CCC(=O)O)NC(=O)[C@H](CCCNC(=N)N)NC(=O)[C@H](Cc1ccccc1)NC(=O)[C@H](C)N)C(=O)N[C@@H](Cc1c[nH]cn1)C(=O)N[C@@H](CCCCN)C(=O)N[C@@H](CC(C)C)C(=O)N[C@@H](CC(C)C)C(=O)N[C@H](C(=O)N[C@@H](CC(C)C)C(=O)N[C@@H](CC(=O)O)C(=O)N[C@@H](C)C(=O)N1CCC[C@H]1C(N)=O)C(C)C [TIP(9-39)] (H-AFRERARLLAALERRHWLNSYMHKLLVLDAP-NH2)
higher antagonist concentration required against human TIP39 than against PTH-(1-34) (human PTH2 receptor [2]; 1 nM of either agonist): approximately 14 fold
antagonism at the PTH2 receptor (in words) (human PTH2 receptor [2]; P2R LLCPK1 cells, FIG. 8): antagonist of the PTH2 receptor
inhibition of agonist actions (in words) (PTH1R [3]): inhibited the actions of the three agonists
stimulation of cAMP accumulation at the PTH1R (in words) (PTH1R [4]): lack of second messenger formation; also recorded: failed to stimulate cAMP accumulation

B1: TIP(3-39) (peptide)
peptide: ALADDAAFRERARLLAALERRHWLNSYMHKLLVLDAP
modifications: not fully specified (C-terminus)
IC50 [5]: 68 nM
fold higher apparent binding affinity in comparison to the parent peptide TIP(1-39) [6]: ~3 fold
IC50 [7]: 96 nM
fold improvement in apparent binding affinity relative to TIP(1-39) [8]: ≤ 6 fold
